In US20220380800A1:

Columns and labels:
[1] = biological target: purified bovine cation-independent mannose 6-phosphate receptor (CI-MPR) (bovine) (UniProt P08169); experiment: plate assay: conditioned medium on immobilized bovine CI-MPR, bound enzyme by 4-MU activity, linear range points
[2] = biological target: purified bovine cation-independent mannose 6-phosphate receptor (CI-MPR) (bovine) (UniProt P08169); experiment: plate assay: conditioned medium on immobilized bovine CI-MPR, bound enzyme by 4-MU activity

Sequence of UniProt P08169 (P08169 45-2313 limits assumed): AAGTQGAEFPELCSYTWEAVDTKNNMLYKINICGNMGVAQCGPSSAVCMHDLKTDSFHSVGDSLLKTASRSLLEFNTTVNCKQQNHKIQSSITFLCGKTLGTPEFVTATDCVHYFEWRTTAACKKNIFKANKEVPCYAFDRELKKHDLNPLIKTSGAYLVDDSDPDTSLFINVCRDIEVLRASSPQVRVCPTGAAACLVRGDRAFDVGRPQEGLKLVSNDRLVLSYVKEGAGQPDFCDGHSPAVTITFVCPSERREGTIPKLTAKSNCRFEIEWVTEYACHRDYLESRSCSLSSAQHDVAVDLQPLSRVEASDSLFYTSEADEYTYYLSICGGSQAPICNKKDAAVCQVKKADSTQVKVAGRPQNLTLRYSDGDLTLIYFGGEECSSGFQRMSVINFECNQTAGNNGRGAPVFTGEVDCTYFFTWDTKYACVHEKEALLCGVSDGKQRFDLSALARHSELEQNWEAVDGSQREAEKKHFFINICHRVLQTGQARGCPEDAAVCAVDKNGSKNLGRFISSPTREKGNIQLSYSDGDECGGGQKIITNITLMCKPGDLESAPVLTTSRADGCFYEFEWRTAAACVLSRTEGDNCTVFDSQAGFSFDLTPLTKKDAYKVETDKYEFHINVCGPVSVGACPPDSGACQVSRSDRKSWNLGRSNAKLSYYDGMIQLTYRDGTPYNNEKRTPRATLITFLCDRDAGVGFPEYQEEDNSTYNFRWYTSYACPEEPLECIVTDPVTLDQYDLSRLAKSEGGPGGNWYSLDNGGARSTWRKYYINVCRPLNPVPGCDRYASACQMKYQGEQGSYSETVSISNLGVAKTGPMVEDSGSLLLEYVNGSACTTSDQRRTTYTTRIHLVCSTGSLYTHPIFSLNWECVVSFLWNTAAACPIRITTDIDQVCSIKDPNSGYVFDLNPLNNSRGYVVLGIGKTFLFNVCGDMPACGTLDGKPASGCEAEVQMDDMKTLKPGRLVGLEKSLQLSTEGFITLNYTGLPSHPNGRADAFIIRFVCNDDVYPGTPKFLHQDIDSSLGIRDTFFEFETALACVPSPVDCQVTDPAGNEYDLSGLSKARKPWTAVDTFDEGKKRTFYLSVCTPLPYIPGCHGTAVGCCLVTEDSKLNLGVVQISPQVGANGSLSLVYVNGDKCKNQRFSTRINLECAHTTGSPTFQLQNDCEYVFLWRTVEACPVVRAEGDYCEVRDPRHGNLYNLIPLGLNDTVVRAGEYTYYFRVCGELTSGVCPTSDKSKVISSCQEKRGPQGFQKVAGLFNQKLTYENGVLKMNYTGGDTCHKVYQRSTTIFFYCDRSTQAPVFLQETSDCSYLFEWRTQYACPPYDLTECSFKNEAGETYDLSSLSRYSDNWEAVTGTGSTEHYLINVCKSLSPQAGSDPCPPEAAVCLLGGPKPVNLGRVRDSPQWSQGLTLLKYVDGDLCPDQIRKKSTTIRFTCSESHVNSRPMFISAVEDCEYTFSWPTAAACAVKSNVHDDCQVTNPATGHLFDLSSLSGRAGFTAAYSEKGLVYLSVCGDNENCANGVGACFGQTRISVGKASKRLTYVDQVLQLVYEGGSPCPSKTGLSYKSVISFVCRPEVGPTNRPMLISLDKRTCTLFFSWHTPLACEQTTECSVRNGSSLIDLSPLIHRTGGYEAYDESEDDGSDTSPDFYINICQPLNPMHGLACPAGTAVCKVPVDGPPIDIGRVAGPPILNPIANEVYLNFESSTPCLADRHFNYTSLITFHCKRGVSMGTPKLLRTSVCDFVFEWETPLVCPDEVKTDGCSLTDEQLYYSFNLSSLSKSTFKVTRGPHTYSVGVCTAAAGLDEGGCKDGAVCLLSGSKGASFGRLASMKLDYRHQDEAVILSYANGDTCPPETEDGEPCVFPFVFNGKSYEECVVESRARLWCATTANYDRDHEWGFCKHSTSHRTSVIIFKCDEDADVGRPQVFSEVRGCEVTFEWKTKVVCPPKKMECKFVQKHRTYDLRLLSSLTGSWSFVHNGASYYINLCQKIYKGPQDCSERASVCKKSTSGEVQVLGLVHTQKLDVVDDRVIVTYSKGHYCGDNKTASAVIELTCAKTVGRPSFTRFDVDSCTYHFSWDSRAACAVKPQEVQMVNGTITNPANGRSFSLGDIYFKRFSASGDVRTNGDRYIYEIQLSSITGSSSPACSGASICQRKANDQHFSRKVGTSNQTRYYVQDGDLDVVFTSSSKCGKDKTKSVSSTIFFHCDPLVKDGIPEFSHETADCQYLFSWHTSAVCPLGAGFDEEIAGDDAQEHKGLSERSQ

Substance | percentage of receptor binding [1] [%] | fold of percentage bound against GBA produced by endogenous phosphotransferase [2] [fold] | overall binding percentage [2] [%] | fold of binding percentage against GLA sample [2] [fold]
human acid beta-glucosidase (GBA) produced by co-transfection of GBA plasmid and CMV-S1S3 plasmid in Expi293 cells (from UniProt P04062 40-536) (enzyme) | 43 | – | – | –
human acid beta-glucosidase (GBA) produced from GBA single expression plasmid in Expi293 cells (endogenous phosphotransferase) (from UniProt P04062 40-536) (enzyme) | 4.5 | – | – | –
human alpha-galactosidase (GLA) produced from bicistronic plasmid pLL51 in Expi293 cells (from UniProt P06280 32-429) (enzyme) | – | – | 62.1 | 2

Further lines, results first:

percentage of receptor binding [1] [%] | fold of percentage bound against GBA produced by endogenous phosphotransferase [2] [fold] | overall binding percentage [2] [%] | fold of binding percentage against GLA sample [2] [fold] | Substance
44 | 10 | – | – | human acid beta-glucosidase (GBA) produced from bicistronic plasmid pLL11 (pCMV-hGBA-IRES-S1S3) in Expi293 cells (from UniProt P04062 40-536) (enzyme)
– | – | 33.1 | – | human alpha-galactosidase (GLA) produced from GLA single plasmid in Expi293 cells (from UniProt P06280 32-429) (enzyme)
